Laboratory results from the supplement of paper PMC10567573.

B1: OAS1 (parent)
chain: LTVYAWERGSMKTHFNTAQGFRTV

Variants of: B1
Assay: protein stability index of a GFP-peptide fusion (GPS, HEK-293T) (PSI 1-6); higher = more stable
Conditions: c terminus: a fixed tail appended
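Further: lentivirally expressed fusions sorted by FACS into six bins by GFP to DsRed ratio, PSI derived from sequencing read proportions per bin multiplied by bin number.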

Variant	protein stability index
LTVYAWERGSMKTHFWTAQGFRTV [N16W]	3.85
LTVYAWERGSMKTHFYTAQGFRTV [N16Y]	1.95
LTVYAWERGSMKTHFCTAQGFRTV [N16C]	2.63
LTVYAWERGSMKTHFTTAQGFRTV [N16T]	2.45
LTVYAWERGSMKTHFKTAQGFRTV [N16K]	3.06
LTVYAWERGSMKTHFFTAQGFRTV [N16F]	3.37
LTVYAWERGSMKTHFGTAQGFRTV [N16G]	3.06
LTVYAWERGSMKTHFSTAQGFRTV [N16S]	3.5
LTVYAWERGSMKTHFDTAQGFRTV [N16D]	1.66
LTVYAWERGSMKTHFMTAQGFRTV [N16M]	3.47
QTVYAWERGSMKTHFNTAQGFRTV [L1Q]	1.79
CTVYAWERGSMKTHFNTAQGFRTV [L1C]	1.74
ATVYAWERGSMKTHFNTAQGFRTV [L1A]	2.32
YTVYAWERGSMKTHFNTAQGFRTV [L1Y]	2.19
WTVYAWERGSMKTHFNTAQGFRTV [L1W]	2.79
DTVYAWERGSMKTHFNTAQGFRTV [L1D]	2.26
LTVYAWERGSMKTHFNTAQGFRMV [T23M]	3.15
LTVYAWERGSMKTHFNTAQGFRNV [T23N]	3.21
LTVYAWERGSMKTHFNTAQGFRQV [T23Q]	1.9
LTVYAWERGSMKTHFNTAQGFRIV [T23I]	2.69
LTVYAWERGSMKTHFNTAQGFRDV [T23D]	3.86
LTVYAWERGSMKTHFNTAQGFRKV [T23K]	2.39
LTRYAWERGSMKTHFNTAQGFRTV [V3R]	2.46
LTHYAWERGSMKTHFNTAQGFRTV [V3H]	2.36

Variant	protein stability index
LTNYAWERGSMKTHFNTAQGFRTV [V3N]	2.05
LTCYAWERGSMKTHFNTAQGFRTV [V3C]	2.02
LTKYAWERGSMKTHFNTAQGFRTV [V3K]	2.12
LTQYAWERGSMKTHFNTAQGFRTV [V3Q]	2.09
LTDYAWERGSMKTHFNTAQGFRTV [V3D]	2.57
LTTYAWERGSMKTHFNTAQGFRTV [V3T]	1.96
LTAYAWERGSMKTHFNTAQGFRTV [V3A]	2.24
LTYYAWERGSMKTHFNTAQGFRTV [V3Y]	2.7
LTVYCWERGSMKTHFNTAQGFRTV [A5C]	3.68
LTVYDWERGSMKTHFNTAQGFRTV [A5D]	2.59
LTVYVWERGSMKTHFNTAQGFRTV [A5V]	2.34
LTVYLWERGSMKTHFNTAQGFRTV [A5L]	2.8
LTVYQWERGSMKTHFNTAQGFRTV [A5Q]	1.54
LTVYSWERGSMKTHFNTAQGFRTV [A5S]	1.91
LTVYAWERGDMKTHFNTAQGFRTV [S10D]	1.75
LTVYAWERGAMKTHFNTAQGFRTV [S10A]	2.05
LTVYAWERGIMKTHFNTAQGFRTV [S10I]	1.91
LTVYAWERGHMKTHFNTAQGFRTV [S10H]	2.71
LTVYAWERGGMKTHFNTAQGFRTV [S10G]	2.28
LTVYAWERGSMKTHFNTAFGFRTV [Q19F]	3.35
LTVYAWERGSMKTHFNTAIGFRTV [Q19I]	3.54
LTVYAWERGSMKTHFNTAYGFRTV [Q19Y]	3.25
LTVYAWERGSMKTHFNTAAGFRTV [Q19A]	2.23
LTVYAWERGSMKTHFNTAVGFRTV [Q19V]	3.84

Variant	protein stability index
LTVYAWERGSMKTHFNTARGFRTV [Q19R]	2.22
LTVYAWERGSMKTHFNTAPGFRTV [Q19P]	3.02
LTVYAWERGSMKTHFNTAGGFRTV [Q19G]	2.64
LTVYAWERGSMKTHFNTAKGFRTV [Q19K]	2.43
LTVYATERGSMKTHFNTAQGFRTV [W6T]	2.45
LTVYAYERGSMKTHFNTAQGFRTV [W6Y]	1.9
LTVYASERGSMKTHFNTAQGFRTV [W6S]	1.59
LTVYAFERGSMKTHFNTAQGFRTV [W6F]	2.89
LTVYAMERGSMKTHFNTAQGFRTV [W6M]	3.17
LTVYADERGSMKTHFNTAQGFRTV [W6D]	1.87
LTVYAAERGSMKTHFNTAQGFRTV [W6A]	1.86
LTVYAGERGSMKTHFNTAQGFRTV [W6G]	1.73
LLVYAWERGSMKTHFNTAQGFRTV [T2L]	2.7
LQVYAWERGSMKTHFNTAQGFRTV [T2Q]	1.86
LNVYAWERGSMKTHFNTAQGFRTV [T2N]	1.84
LVVYAWERGSMKTHFNTAQGFRTV [T2V]	2.23
LWVYAWERGSMKTHFNTAQGFRTV [T2W]	2.55
LTVYAWERGSMKTHCNTAQGFRTV [F15C]	1.96
LTVYAWERGSMKTHRNTAQGFRTV [F15R]	2.93
LTVYAWERGSMKTHANTAQGFRTV [F15A]	2.35
LTVYAWERGSMKTHKNTAQGFRTV [F15K]	2.01
LTVYAWERGSMKTHLNTAQGFRTV [F15L]	2.21
LTVYAWERGSMKTHMNTAQGFRTV [F15M]	2.26
LTVYAWERGSMKTNFNTAQGFRTV [H14N]	1.74

Variant	protein stability index
LTVYAWERGSMKTFFNTAQGFRTV [H14F]	2.8
LTVYAWERGSMKTPFNTAQGFRTV [H14P]	2.56
LTVYAWERGSMKTRFNTAQGFRTV [H14R]	3.04
LTVYAWERGSMKTWFNTAQGFRTV [H14W]	2.76
LTVYAWERGSMKTVFNTAQGFRTV [H14V]	3.57
LTVYAWEWGSMKTHFNTAQGFRTV [R8W]	2.69
LTVYAWEHGSMKTHFNTAQGFRTV [R8H]	2.13
LTVYAWETGSMKTHFNTAQGFRTV [R8T]	3.1
LTVYAWEAGSMKTHFNTAQGFRTV [R8A]	2.38
LTVYAWEKGSMKTHFNTAQGFRTV [R8K]	1.53
LTVYAWEVGSMKTHFNTAQGFRTV [R8V]	2.77
LTVYAWEQGSMKTHFNTAQGFRTV [R8Q]	2.56
LTVYAWEPGSMKTHFNTAQGFRTV [R8P]	4.46
LTVYAWECGSMKTHFNTAQGFRTV [R8C]	1.85
LTVYAWERGSMKTHFNCAQGFRTV [T17C]	1.78
LTVYAWERGSMKTHFNPAQGFRTV [T17P]	2.2
LTVYAWERGSMKTHFNWAQGFRTV [T17W]	2.1
LTVYAWERGSMKTHFNAAQGFRTV [T17A]	1.69
LTVYAWERGSMKTHFNFAQGFRTV [T17F]	2.25
LTVYAWERGSMKTHFNKAQGFRTV [T17K]	2.48
LTVYAWERGSMKTHFNYAQGFRTV [T17Y]	2.64
LTVYAWERGSMKTHFNMAQGFRTV [T17M]	1.74
LTVYAWERGSMKTHFNEAQGFRTV [T17E]	1.61
LTVYAWERGSMKTHFNRAQGFRTV [T17R]	2.38

Variant	protein stability index
LTVYAWERGSMKTHFNIAQGFRTV [T17I]	3.17
LTVYAWERGSMKTHFNTAQGSRTV [F21S]	2.42
LTVYAWERGSMKTHFNTAQGPRTV [F21P]	2.33
LTVYAWERGSMKTHFNTAQGVRTV [F21V]	1.82
LTVYAWERGSMKTHFNTAQGKRTV [F21K]	2.27
LTVYAWERGSMKTHFNTAQGQRTV [F21Q]	1.65
LTVYAWERGSMKTHFNTAQGMRTV [F21M]	1.9
LTVYAWERGSMKTHFNTAQGTRTV [F21T]	1.96
LTVYAWERGSMKTHFNTAQGFRTR [V24R]	1.69
LTVYAWERGSMKTHFNTAQGFRTH [V24H]	1.61
LTVYAWERGSMKTHFNTAQGFRTT [V24T]	1.8
LTVYAWERGSMKTHFNTAQGFRTS [V24S]	3.01
LTVYAWERGSMKTHFNTAQGFRTQ [V24Q]	2.06
LTVYAWERGSMKTHFNTAQGFRTE [V24E]	2.51
LTVYAWERGSMKTHFNTAQGFRTF [V24F]	2.35
LTVYAWERGSMKTHFNTAQGFRTM [V24M]	1.96
LTVYAWERGSMKTHFNTAQGFRTK [V24K]	1.71
LTVYAWERGSMKTHFNTAQGFETV [R22E]	2.82
LTVYAWERGSMKTHFNTAQGFITV [R22I]	1.73
LTVYAWERGSMKTHFNTAQGFWTV [R22W]	1.93
LTVSAWERGSMKTHFNTAQGFRTV [Y4S]	1.83
LTVCAWERGSMKTHFNTAQGFRTV [Y4C]	1.38
LTVHAWERGSMKTHFNTAQGFRTV [Y4H]	1.66
LTVIAWERGSMKTHFNTAQGFRTV [Y4I]	3.51

Variant	protein stability index
LTVRAWERGSMKTHFNTAQGFRTV [Y4R]	1.77
LTVEAWERGSMKTHFNTAQGFRTV [Y4E]	1.97
LTVLAWERGSMKTHFNTAQGFRTV [Y4L]	2.55
LTVYAWERGSMKMHFNTAQGFRTV [T13M]	3.37
LTVYAWERGSMKSHFNTAQGFRTV [T13S]	2.01
LTVYAWERGSMKFHFNTAQGFRTV [T13F]	3.1
LTVYAWERGSMKAHFNTAQGFRTV [T13A]	2.88
LTVYAWERGSMKVHFNTAQGFRTV [T13V]	2.68
LTVYAWERGSMKEHFNTAQGFRTV [T13E]	2.06
LTVYAWERGSMKGHFNTAQGFRTV [T13G]	2.33
LTVYAWERGSMKDHFNTAQGFRTV [T13D]	2.74
LTVYAWERGSMKLHFNTAQGFRTV [T13L]	2.99
LTVYAWERGSMKNHFNTAQGFRTV [T13N]	2.25
LTVYAWERGSMKHHFNTAQGFRTV [T13H]	1.83
LTVYAWERLSMKTHFNTAQGFRTV [G9L]	2.91
LTVYAWERHSMKTHFNTAQGFRTV [G9H]	1.61
LTVYAWERESMKTHFNTAQGFRTV [G9E]	2.7
LTVYAWERYSMKTHFNTAQGFRTV [G9Y]	2.93
LTVYAWERKSMKTHFNTAQGFRTV [G9K]	1.8
LTVYAWERWSMKTHFNTAQGFRTV [G9W]	2.69
LTVYAWERSSMKTHFNTAQGFRTV [G9S]	2.49
LTVYAWERDSMKTHFNTAQGFRTV [G9D]	2.6
LTVYAWERGSMYTHFNTAQGFRTV [K12Y]	2.49
LTVYAWERGSMGTHFNTAQGFRTV [K12G]	1.54

Variant	protein stability index
LTVYAWERGSMMTHFNTAQGFRTV [K12M]	3.75
LTVYAWERGSMTTHFNTAQGFRTV [K12T]	2.98
LTVYAWERGSMHTHFNTAQGFRTV [K12H]	2.87
LTVYAWERGSMATHFNTAQGFRTV [K12A]	3.08
LTVYAWERGSMCTHFNTAQGFRTV [K12C]	3.27
LTVYAWERGSMETHFNTAQGFRTV [K12E]	2.22
LTVYAWHRGSMKTHFNTAQGFRTV [E7H]	2.41
LTVYAWRRGSMKTHFNTAQGFRTV [E7R]	2.05
LTVYAWYRGSMKTHFNTAQGFRTV [E7Y]	1.92
LTVYAWCRGSMKTHFNTAQGFRTV [E7C]	3.64
LTVYAWQRGSMKTHFNTAQGFRTV [E7Q]	3.28
LTVYAWERGSMKTHFNTAQWFRTV [G20W]	1.9
LTVYAWERGSMKTHFNTAQEFRTV [G20E]	3.23
LTVYAWERGSMKTHFNTAQHFRTV [G20H]	2.56
LTVYAWERGSMKTHFNTAQRFRTV [G20R]	3.81
LTVYAWERGSMKTHFNTAQLFRTV [G20L]	3.19
LTVYAWERGSMKTHFNTAQKFRTV [G20K]	1.61
LTVYAWERGSMKTHFNTAQPFRTV [G20P]	2.25
LTVYAWERGSMKTHFNTAQCFRTV [G20C]	2.06
LTVYAWERGSMKTHFNTAQFFRTV [G20F]	2.39
LTVYAWERGSMKTHFNTAQVFRTV [G20V]	2.89
LTVYAWERGSMKTHFNTAQNFRTV [G20N]	2.19
LTVYAWERGSMKTHFNTAQDFRTV [G20D]	2.18
LTVYAWERGSMKTHFNTAQIFRTV [G20I]	3

Variant	protein stability index
LTVYAWERGSMKTHFNTCQGFRTV [A18C]	1.88
LTVYAWERGSMKTHFNTMQGFRTV [A18M]	2.79
LTVYAWERGSMKTHFNTSQGFRTV [A18S]	1.2
LTVYAWERGSMKTHFNTWQGFRTV [A18W]	2.73
LTVYAWERGSMKTHFNTYQGFRTV [A18Y]	4.24
LTVYAWERGSMKTHFNTVQGFRTV [A18V]	3.42
LTVYAWERGSMKTHFNTTQGFRTV [A18T]	2.39
LTVYAWERGSMKTHFNTGQGFRTV [A18G]	2.64
LTVYAWERGSMKTHFNTDQGFRTV [A18D]	4.02
LTVYAWERGSMKTHFNTLQGFRTV [A18L]	4.32
LTVYAWERGSMKTHFNTNQGFRTV [A18N]	2.63
LTVYAWERGSTKTHFNTAQGFRTV [M11T]	2.09
LTVYAWERGSQKTHFNTAQGFRTV [M11Q]	2.14
LTVYAWERGSNKTHFNTAQGFRTV [M11N]	2.06
LTVYAWERGSHKTHFNTAQGFRTV [M11H]	2.31
LTVYAWERGSPKTHFNTAQGFRTV [M11P]	1.85
LTVYAWERGSKKTHFNTAQGFRTV [M11K]	2.38
LTVYAWERGSGKTHFNTAQGFRTV [M11G]	3.37
LTVYAWERGSCKTHFNTAQGFRTV [M11C]	3.65
LTVYAWERGSEKTHFNTAQGFRTV [M11E]	2.27
